Literature values in patent US9817004B2, “Development and use of cysteine-labeled fluorescent probes of unbound analytes” (priority 2008, dated 2017).
Where a chain is given by its changes, count along the chain named.

B1: Thr81Cys: I-FABP mutant Thr81Cys labeled with acrylodan (Kleinfeld '714) (protein, UniProt P02693 2-132, looked up, variant T81C)
Fatty acid-binding protein, …: AFDGTWKVDRNENYEKFMEKMGINVVKRKLGAHDNLKLTITQEGNKFTVKESSNFRNIDVVFELGVDFAYSLADGTELTGCWTMEGNKLVGKFKRVDNGKELIAVREISGNELIQTYTYEGVEAKRIFKKE
modifications: acrylodan label
B2: Thr83Cys: I-FABP mutant Thr83Cys labeled with acrylodan (Kleinfeld '714) (protein, UniProt P02693 2-132, looked up, variant T83C)
Fatty acid-binding protein, …: B1 Fatty acid-binding protein, … with C81T, T83C
modifications: acrylodan label

Details: I-FABP mutants labeled with acrylodan; from U.S. Pat. No. 5,470,714; cited from earlier work

| Molecule | fluorescence response to FFAu binding |
| --- | --- |
| B1 | unresponsive to FFAu binding |
| B2 | unresponsive to FFAu binding |
